Assays:
Assay in all cases: cell-based or functional assay
[1] = molecular target: HIV-1 Env pseudovirus Q769.d22 (HIV-1)
[2] = molecular target: HIV-1 Env pseudovirus Q842.d12 (HIV-1)
[3] = molecular target: HIV-1 Env pseudovirus 1054_07_TC4_1499 (HIV-1)
[4] = molecular target: HIV-1 Env pseudovirus CNE20 (HIV-1)
[5] = molecular target: HIV-1 Env pseudovirus Ce1086_B2 (HIV-1)
[6] = molecular target: HIV-1 Env pseudovirus HIV-0013095-2.11 (HIV-1)
[7] = molecular target: HIV-1 Env pseudovirus Du172.17 (HIV-1)
[8] = molecular target: HIV-1 Env pseudovirus WITO4160.33 (HIV-1)
[9] = molecular target: HIV-1 Env pseudovirus Du156.12 (HIV-1)
[10] = molecular target: HIV-1 Env pseudovirus Q461.e2 (HIV-1)
[11] = molecular target: HIV-1 Env pseudovirus Ce703010054_2A2 (HIV-1)
[12] = molecular target: HIV-1 Env pseudovirus ZM197M.PB7 (HIV-1)
[13] = molecular target: HIV-1 Env pseudovirus 1394C9G1(Rev-) (HIV-1)
[14] = molecular target: HIV-1 Env pseudovirus Ce1172_H1 (HIV-1)
[15] = molecular target: HIV-1 Env pseudovirus T278-50 (HIV-1)
[16] = molecular target: HIV-1 Env pseudovirus C2101.c01 (HIV-1)
[17] = molecular target: HIV-1 Env pseudovirus 211-9 (HIV-1)
[18] = molecular target: HIV-1 Env pseudovirus 6545.v4.c1 (HIV-1)
[19] = molecular target: HIV-1 Env pseudovirus X2131_C1_B5 (HIV-1)
[20] = molecular target: HIV-1 Env pseudovirus X1632_S2_B10 (HIV-1)
[21] = molecular target: HIV-1 Env pseudovirus X2088_c9 (HIV-1)
[22] = molecular target: HIV-1 Env pseudovirus 3016.v5.c45 (HIV-1)
[23] = molecular target: HIV-1 Env pseudovirus T250-4 (HIV-1)

N49P7.2 (antibody)
IC50 [1]: 0.029 µg/mL | IC80 [1]: 0.14 µg/mL | MPI [1]: 100 | IC50 [2]: 0.045 µg/mL | IC80 [2]: 0.2 µg/mL | MPI [2]: 100 | IC50 [3]: 2.04 µg/mL | IC80 [3]: 10.7 µg/mL | MPI [3]: 99 | IC50 [4]: 0.119 µg/mL | IC80 [4]: 0.574 µg/mL | MPI [4]: 99 | IC50 [5]: 0.166 µg/mL | IC80 [5]: 1 µg/mL | MPI [5]: 100 | IC50 [6]: 0.183 µg/mL | IC80 [6]: 0.931 µg/mL | MPI [6]: 97 | IC50 [7]: 0.29 µg/mL | IC80 [7]: 1.08 µg/mL | MPI [7]: 100 | IC50 [8]: 0.051 µg/mL | IC80 [8]: 0.215 µg/mL | MPI [8]: 100 | IC50 [9]: 0.058 µg/mL | IC80 [9]: 0.21 µg/mL | MPI [9]: 100 | IC50 [10]: 0.472 µg/mL | IC80 [10]: 2.24 µg/mL | MPI [10]: 100 | IC50 [11]: 0.124 µg/mL | IC80 [11]: 0.576 µg/mL | MPI [11]: 100 | IC50 [12]: 0.223 µg/mL | IC80 [12]: 1.37 µg/mL | MPI [12]: 100 | IC50 [13]: > 50 µg/mL | IC80 [13]: > 50 µg/mL | MPI [13]: 20 | IC50 [14]: > 50 µg/mL | IC80 [14]: > 50 µg/mL | MPI [14]: 6

N49P11 (antibody)
IC50 [1]: 0.048 µg/mL | IC80 [1]: 0.308 µg/mL | MPI [1]: 100 | IC50 [2]: 0.027 µg/mL | IC80 [2]: 0.103 µg/mL | MPI [2]: 100 | IC50 [3]: 2.92 µg/mL | IC80 [3]: 13.1 µg/mL | MPI [3]: 100 | IC50 [4]: 5.19 µg/mL | IC80 [4]: 22.6 µg/mL | MPI [4]: 100 | IC50 [5]: 2.19 µg/mL | IC80 [5]: 11.7 µg/mL | MPI [5]: 100 | IC50 [6]: 5.85 µg/mL | IC80 [6]: 17.8 µg/mL | MPI [6]: 100 | IC50 [7]: 5.65 µg/mL | IC80 [7]: 17.9 µg/mL | MPI [7]: 100 | IC50 [8]: 4.86 µg/mL | IC80 [8]: 13.2 µg/mL | MPI [8]: 100 | IC50 [9]: 2.4 µg/mL | IC80 [9]: 12 µg/mL | MPI [9]: 100 | IC50 [10]: 0.363 µg/mL | IC80 [10]: 2.15 µg/mL | MPI [10]: 100 | IC50 [11]: 1.42 µg/mL | IC80 [11]: 7.51 µg/mL | MPI [11]: 100 | IC50 [12]: 0.303 µg/mL | IC80 [12]: 1.59 µg/mL | MPI [12]: 100 | IC50 [13]: 6.13 µg/mL | IC80 [13]: 22.3 µg/mL | MPI [13]: 100 | IC50 [14]: 3.55 µg/mL | IC80 [14]: 19.2 µg/mL | MPI [14]: 100

N49P18.1 (antibody)
IC50 [1]: 4.92 µg/mL | IC80 [1]: 18.3 µg/mL | MPI [1]: 97 | IC50 [2]: 3.04 µg/mL | IC80 [2]: 8.13 µg/mL | MPI [2]: 100 | IC50 [3]: > 50 µg/mL | IC80 [3]: > 50 µg/mL | MPI [3]: 0 | IC50 [4]: 1.33 µg/mL | IC80 [4]: 6.36 µg/mL | MPI [4]: 100 | IC50 [5]: 8.98 µg/mL | IC80 [5]: 48 µg/mL | MPI [5]: 92 | IC50 [6]: > 50 µg/mL | IC80 [6]: > 50 µg/mL | MPI [6]: 48 | IC50 [7]: 6.52 µg/mL | IC80 [7]: 21.3 µg/mL | MPI [7]: 92 | IC50 [8]: 11 µg/mL | IC80 [8]: 37.6 µg/mL | MPI [8]: 87 | IC50 [9]: 1.88 µg/mL | IC80 [9]: 6.81 µg/mL | MPI [9]: 100 | IC50 [10]: 24.7 µg/mL | IC80 [10]: > 50 µg/mL | MPI [10]: 68 | IC50 [11]: 4.15 µg/mL | IC80 [11]: 11.6 µg/mL | MPI [11]: 98 | IC50 [12]: 12.5 µg/mL | IC80 [12]: 49.8 µg/mL | MPI [12]: 84 | IC50 [13]: > 50 µg/mL | IC80 [13]: > 50 µg/mL | MPI [13]: 17 | IC50 [14]: 46.4 µg/mL | IC80 [14]: > 50 µg/mL | MPI [14]: 52

VRC01 (antibody)
IC50 (Titer in TZM.bl cells) [15]: > 50 µg/mL | IC80 (Titer in TZM.bl cells) [15]: > 50 µg/mL | IC50 (Titer in TZM.bl cells) [16]: 0.36 µg/mL | IC80 (Titer in TZM.bl cells) [16]: 1.17 µg/mL | IC50 (Titer in TZM.bl cells) [1]: 0.08 µg/mL | IC80 (Titer in TZM.bl cells) [1]: 0.29 µg/mL | IC50 (Titer in TZM.bl cells) [17]: 14.3 µg/mL | IC80 (Titer in TZM.bl cells) [17]: > 50 µg/mL | IC50 (Titer in TZM.bl cells) [2]: 0.03 µg/mL | IC80 (Titer in TZM.bl cells) [2]: 0.096 µg/mL | IC50 (Titer in TZM.bl cells) [18]: > 50 µg/mL | IC80 (Titer in TZM.bl cells) [18]: > 50 µg/mL | IC50 (Titer in TZM.bl cells) [19]: 0.51 µg/mL | IC80 (Titer in TZM.bl cells) [19]: 1.54 µg/mL | IC50 (Titer in TZM.bl cells) [20]: 0.12 µg/mL | IC80 (Titer in TZM.bl cells) [20]: 0.74 µg/mL | IC50 (Titer in TZM.bl cells) [3]: 0.71 µg/mL | IC80 (Titer in TZM.bl cells) [3]: 2.85 µg/mL | IC50 (Titer in TZM.bl cells) [21]: > 50 µg/mL | IC80 (Titer in TZM.bl cells) [21]: > 50 µg/mL | IC50 (Titer in TZM.bl cells) [5]: 0.42 µg/mL | IC80 (Titer in TZM.bl cells) [5]: 1.44 µg/mL | IC50 (Titer in TZM.bl cells) [6]: 0.11 µg/mL | IC80 (Titer in TZM.bl cells) [6]: 0.33 µg/mL | IC50 (Titer in TZM.bl cells) [7]: > 50 µg/mL | IC80 (Titer in TZM.bl cells) [7]: > 50 µg/mL | IC50 (Titer in TZM.bl cells) [8]: 0.15 µg/mL | IC80 (Titer in TZM.bl cells) [8]: 0.41 µg/mL | IC50 (Titer in TZM.bl cells) [9]: 0.09 µg/mL | IC80 (Titer in TZM.bl cells) [9]: 0.193 µg/mL | IC50 (Titer in TZM.bl cells) [10]: 0.49 µg/mL | IC80 (Titer in TZM.bl cells) [10]: 1.6 µg/mL | IC50 (Titer in TZM.bl cells) [22]: 0.16 µg/mL | IC80 (Titer in TZM.bl cells) [22]: 0.42 µg/mL | IC50 (Titer in TZM.bl cells) [11]: 0.53 µg/mL | IC80 (Titer in TZM.bl cells) [11]: 1.84 µg/mL | IC50 (Titer in TZM.bl cells) [23]: > 50 µg/mL | IC80 (Titer in TZM.bl cells) [23]: > 50 µg/mL | IC50 (Titer in TZM.bl cells) [12]: 0.36 µg/mL | IC80 (Titer in TZM.bl cells) [12]: 1.6 µg/mL | IC50 (Titer in TZM.bl cells) [13]: 0.36 µg/mL | IC80 (Titer in TZM.bl cells) [13]: 1.28 µg/mL | IC50 (Titer in TZM.bl cells) [14]: > 10 µg/mL | IC80 (Titer in TZM.bl cells) [14]: > 10 µg/mL

Reference: US20240117018A1
